The text below walks through data of paper PMC12554172, “Systematic analysis of the RGS2 degron reveals characteristics of substrate recognition by the F-box protein FBXO44” (The Journal of Biological Chemistry, 2025).

The test system of one assay is RGS2-HA. In words: Coimmunoprecipitation of FLAG-FBXO44 mutant with RGS2-HA. The format is cell-based. The conditions noted are these: HEK-293T cells, HA tag IP, normalized to input, % of WT, three independent experiments. Here is the method: (§1) Figure 6 Point mutations disrupt the RGS2–FBXO44 association. Co-IP was performed in HEK-293T cells transiently transfected with RGS2-HA and FLAG-FBXO44 (WT and mutants as indicated). […] Representative blot and quantification of four independent experiments. […] Levels of each protein were normalized to input and expressed as % of WT. Representative blot and quantification of three independent experiments. ∗p < 0.05; ∗∗∗∗p < 0.0001 using Student's unpaired t test. Co-IP, coimmunoprecipitation; FBXO44, F-box only protein 44; RGS2, regulator of G protein signaling 2.
(§2) Cells were maintained in a humidified incubator at 37 °C with 5% CO2. HEK-293T cells were obtained from the American Type Culture Collection (ATCC; CRL-1573). The American Type Culture Collection cell lines are subjected to comprehensive and repeated authentication and contamination checks, ensuring confirmation of cell line identity and ensuring that it is free of contamination prior to supplying it to users. Cells underwent periodical (every 6 months) mycoplasma testing to ensure cell lines are not compromised. Cells were cultured in Dulbecco's modified Eagle's medium (Gibco, catalog no.: 11995) and supplemented with 10% fetal bovine serum (Gibco, catalog no.: 16000). Cells were transfected with DNA plasmids using Lipofectamine 3000 (Invitrogen) under reduced serum conditions in Opti-MEM (Gibco, catalog no.: 31985). […]

In assay [1] the test system is HEK-293T cells. In words: Cycloheximide (CHX) chase assay. In kind it is cell-based, human. The note with it: for RGS2 protein half-life (t1/2): CHX 50 μM, Western blot, three independent experiments. The procedure: HEK-293T cells in 12-well plates, transiently transfected with either RGS2^WT or RGS2^C13S, were treated with CHX (50 μM) at indicated time points. Cells were harvested as described later and subjected to SDS-PAGE and Western blot.
(§3) Cells were harvested on ice in lysis buffer containing protease inhibitors (50 mM Tris–HCl [pH 7.4], 5 mM NaCl, 0.5 mM EDTA, 1% Triton X-100, 10% cOmplete Protease Inhibitor Cocktail EDTA-free). Lysates were bath sonicated for 10 min at 4 °C, centrifuged at 6000g for 3 min, and the supernatant was used for SDS-PAGE and immunoblotting. Total protein concentration was determined using the Pierce BCA Protein Assay Kit. Samples were diluted to 1 μg/μl in protein sample loading buffer (Li-Cor Biosciences).
(§4) Equal amounts of protein in each lane were resolved on a 12% SDS-PAGE gel for 1 h at 160 V. Samples were transferred to an Immobilon-FL PVDF membrane (Millipore) and subjected to Western immunoblot analysis using Li-Cor blocking buffer for both blocking and antibody diluents. Membranes were blocked for 1 h, then incubated for 2 h in primary antibodies as described under “Antibodies,” and finally incubated for 1 h with IRDye secondary antibodies directed at the species of the primary antibody. Following each antibody incubation, membranes were washed four times in PBS with 0.1% Tween-20. Membranes were imaged using an Azure600 imaging system (Azure Biosystems).

In assay [2] the test system is HEK-293T cells. In words: RGS2 protein levels, baseline and with proteasome inhibitor MG-132. The format is cell-based, human. The conditions noted are these: for change of RGS2 protein levels with MG-132 / change of RGS2 protein levels with MG-132 (Fig. S4): MG-132 10 μM, 4 h.
Source text: Representative Western blot and quantification of three independent experiments. […] Representative Western blot and quantification of three independent experiments. Representative Western blot (D), quantification of knockdown efficiency (E), and effects on RGS protein levels (F) when FBXO44 is knocked down using siRNA. […] Result of three independent experiments. ∗p < 0.05; ∗∗p < 0.01; ∗∗∗p < 0.001 using two-way ANOVA followed by Tukey's post hoc test for pairwise comparisons (C, E, and F). FBXO44, F-box only protein 44; HEK-293T, human embryonic kidney-293T cell line; RGS2, regulator of G protein signaling 2.
as §3, §4
Figure S4. Effect of RGS2 mutations on protein stability. Representative western blot and quantification of five or six independent experiments (varies by mutation). The proteasome inhibitor MG-132 (10 μM, 4 h) […]
P15R were predicted to destabilize RGS2, due to increased binding to FBXO44 in the peptide microarray. […]
significant. *P<0.05; ***P<0.001 using two-way ANOVA followed by Tukey’s post hoc test for pairwise

Assay [3] concerns FBXO44. The assay can be described thus: siRNA-mediated FBXO44 knockdown, Western blot. The conditions noted are these: HEK-293T cells; for RGS2 protein levels upon FBXO44 knockdown: FBXO44 siRNA, Fig. 7, D and F, three independent experiments. The format is cell-based, human. The procedure:
Using a pool of 4 siRNA oligos (siGENOME SMART Pools; Dharmacon/Revvity), we achieved ∼70% reduction in endogenous FBXO44 protein levels in HEK-293T cells (Fig. 7, D and E).
Cells were maintained in a humidified incubator at 37 °C with 5% CO2. HEK-293T cells were obtained from the American Type Culture Collection (ATCC; CRL-1573). The American Type Culture Collection cell lines are subjected to comprehensive and repeated authentication and contamination checks, ensuring confirmation of cell line identity and ensuring that it is free of contamination prior to supplying it to users. Cells underwent periodical (every 6 months) mycoplasma testing to ensure cell lines are not compromised. Cells were cultured in Dulbecco's modified Eagle's medium (Gibco, catalog no.: 11995) and supplemented with 10% fetal bovine serum (Gibco, catalog no.: 16000). Cells were transfected with DNA plasmids using Lipofectamine 3000 (Invitrogen) under reduced serum conditions in Opti-MEM (Gibco, catalog no.: 31985). Media were changed to Dulbecco's modified Eagle's medium supplemented with 0.5% fetal bovine serum after 4 to 6 h, and cells were harvested for experiments 24 h after transfection. siRNA transfections were performed under reduced serum conditions in Opti-MEM 24 h prior to DNA transfections at 40% to 60% confluency. Cells were transfected with siGENOME SMART-POOL siRNA (FBXO44, M-019201-01-0005; Nontargeting, D-001206-13-05) from Dharmacon (Revvity) using Lipofectamine RNAiMAX (Invitrogen). Experiments were performed 72 h after transfection.
Cells were harvested on ice in lysis buffer containing protease inhibitors (50 mM Tris–HCl [pH 7.4], 5 mM NaCl, 0.5 mM EDTA, 1% Triton X-100, 10% cOmplete Protease Inhibitor Cocktail EDTA-free). Lysates were bath sonicated for 10 min at 4 °C, centrifuged at 6000g for 3 min, and the supernatant was used for SDS-PAGE and immunoblotting. Total protein concentration was determined using the Pierce BCA Protein Assay Kit. Samples were diluted to 1 μg/μl in protein sample loading buffer (Li-Cor Biosciences). […]

A further assay concerns FLAG-FBXO44. The assay can be described thus: Coimmunoprecipitation of RGS2-HA mutant with FLAG-FBXO44. The format is cell-based. The note with it: HEK-293T cells, HA tag IP, normalized to input, % of WT; four independent experiments. Here is the method:
as §1, §2

Assay [4] relates to FBXO44. The conditions noted are these: ref [24]; cited from earlier work. The source says:
However, evidence of a direct interaction between RGS2 and FBXO44 has, until now, not yet been established. Thus, we first aimed to verify that purified FBXO44 would bind the degron sequence in vitro. […] This also c ...

The mark [5] stands for this setting: Fig. 7, B and C, three independent experiments.
[6] abbreviates: Fig. S4, five or six independent experiments.

“Also recorded” adds a separate entry of the source.

B1: FLAG-FBXO44^Y234A: FLAG-tagged FBXO44 with Y234A mutation (protein)
chain: MAVGNINELPENILLELFTHVPARQLLLNCRLVCSLWRDLIDLVTLWKRKCLREGFITEDWDQPVADWKIFYFLRSLHRNLLHNPCAEEGFEFWSLDVNGGDEWKVEDLSRDQRKEFPNDQVKKYFVTSYYTCLKSQVVDLKAEGYWEELMDTTRPDIEVKDWFAARPDCGSKYQLCVQLLSSAHAPLGTFQPDPATIQQKSDAKWREVSHTFSNYPPGVRYIWFQHGGVDTHAWAGWYGPRVTNSSITIGPPLP
modifications: left off: FLAG, end not stated, kept
notes: FLAG-tagged FBXO44 with Y234A mutation
For the molecule B1, the “association with RGS2-HA (co-IP)” value with RGS2-HA was “associates significantly less”; in the assay on RGS2-HA (listed as FBXO44^Y234A), “significantly reduced association”.

B2: RGS2^WT: full-length wild-type RGS2 expressed in HEK-293T cells (protein)
chain: MQSAMFLAVQHDCRPMDKSAGSGHKSEEKREKMKRTLLKDWKTRLSYFLQNSSTPGKPKTGKKSKQQAFIKPSPEEAQLWSEAFDELLASKYGLAAFRAFLKSEFCEENIEFWLACEDFKKTKSPQKLSSKARKIYTDFIEKEAPKEINIDFQTKTLIAQNIQEATSGCFTTAQKRVYSLMENNSYPRFLESEFYQDLCKKPQITTEPHAT
modifications: left off: HA, end not stated, kept
notes: full-length wild-type RGS2 expressed in HEK-293T cells
Take B2: the “RGS2 protein half-life (t1/2)” value with HEK-293T cells [1] (transfected HEK-293T) was determined as 19.5 min. Also, the “change of RGS2 protein levels with MG-132” value with HEK-293T cells [2] (setting [5]) is given as “significantly enhanced”. The “change of RGS2 protein levels with MG-132 (Fig. S4)” value with HEK-293T cells [2] (setting [6]) is listed as “significantly increases”. In addition, the “RGS2 protein levels upon FBXO44 knockdown” value in the assay on FBXO44 [3] is on record as “significantly increases; also recorded: significant increase”.

B3: RGS2^C13S-HA: HA-tagged RGS2 with C13S mutation (protein)
chain: MQSAMFLAVQHDSRPMDKSAGSGHKSEEKREKMKRTLLKDWKTRLSYFLQNSSTPGKPKTGKKSKQQAFIKPSPEEAQLWSEAFDELLASKYGLAAFRAFLKSEFCEENIEFWLACEDFKKTKSPQKLSSKARKIYTDFIEKEAPKEINIDFQTKTLIAQNIQEATSGCFTTAQKRVYSLMENNSYPRFLESEFYQDLCKKPQITTEPHAT
modifications: left off: HA, end not stated, kept
notes: HA-tagged RGS2 with C13S mutation
Turning to B3, the “association with FLAG-FBXO44 (co-IP)” value with FLAG-FBXO44 is reported as “significantly reduced association; also recorded: associates significantly less”.

B4: RGS2^C13S: full-length RGS2 with C13S mutation (protein)
chain: MQSAMFLAVQHDSRPMDKSAGSGHKSEEKREKMKRTLLKDWKTRLSYFLQNSSTPGKPKTGKKSKQQAFIKPSPEEAQLWSEAFDELLASKYGLAAFRAFLKSEFCEENIEFWLACEDFKKTKSPQKLSSKARKIYTDFIEKEAPKEINIDFQTKTLIAQNIQEATSGCFTTAQKRVYSLMENNSYPRFLESEFYQDLCKKPQITTEPHAT
modifications: left off: HA, end not stated, kept
notes: full-length RGS2 with C13S mutation
With B4, the “extension of RGS2 protein half-life versus RGS2^WT” value with HEK-293T cells [1] (CHX chase, RGS2^C13S versus RGS2^WT) is listed as “almost twofold; also recorded: almost double that of RGS2^WT”. The “RGS2 protein stability versus RGS2^WT (in words)” value in the assay with HEK-293T cells [1] (CHX chase, transfected HEK-293T) is recorded as “significantly stabilized”. Besides, in the assay with HEK-293T cells [1] (transfected HEK-293T), the “RGS2 protein half-life (t1/2)” value is on record as 33.5 min. For the same molecule, the “change of RGS2 protein levels with MG-132” value in the assay on HEK-293T cells [2] (setting [5]) is “not significantly changed; also recorded: does not significantly change”. Further, the “basal RGS2 protein level versus RGS2^WT” value in the assay on HEK-293T cells [2] (no MG-132, Fig. 7, B and C, three independent experiments) is given as “increased protein levels at baseline; however, this increase was not statistically significant; also recorded: upward trend in basal expression”. The “RGS2 protein levels upon FBXO44 knockdown” value in the assay with FBXO44 [3] is reported as “significantly increases RGS2^WT but not RGS2^C13S protein levels; also recorded: significant increase in RGS2^WT but not RGS2^C13S protein levels”. Further, the “RGS2^C13S expression level versus RGS2^WT in siRNA experiments” value in the assay on FBXO44 [3] (Fig. 7F) is “significantly higher levels than RGS2^WT”.

B5: RGS2^D12R: full-length RGS2 with D12R mutation (protein, UniProt P41220 1-211, looked up, variant D12R)
chain: MQSAMFLAVQHRCRPMDKSAGSGHKSEEKREKMKRTLLKDWKTRLSYFLQNSSTPGKPKTGKKSKQQAFIKPSPEEAQLWSEAFDELLASKYGLAAFRAFLKSEFCEENIEFWLACEDFKKTKSPQKLSSKARKIYTDFIEKEAPKEINIDFQTKTLIAQNIQEATSGCFTTAQKRVYSLMENNSYPRFLESEFYQDLCKKPQITTEPHAT
modifications: full-length
notes: full-length RGS2 with D12R mutation
Consider B5, for which, in the assay on HEK-293T cells [2] (setting [6]), the “change of RGS2 protein levels with MG-132 (Fig. S4)” value is on record as “none of these mutations resulted in significant changes in basal expression or response to MG-132”. Further, the “basal RGS2 protein expression versus RGS2^WT (Fig. S4)” value in the assay with HEK-293T cells [2] (no MG-132, Fig. S4, five or six independent experiments) is listed as “trend toward lower basal expression”.

B6: RGS4: closely related RGS4, subject to proteasomal degradation by a different pathway (protein, UniProt P49798 1-205, looked up)
Regulator of G-protein …: MCKGLAGLPASCLRSAKDMKHRLGFLLQKSDSCEHNSSHNKKDKVVICQRVSQEEVKKWAESLENLISHECGLAAFKAFLKSEYSEENIDFWISCEEYKKIKSPSKLSPKAKKIYNEFISVQATKEVNLDSCTREETSRNMLEPTITCFDEAQKKIFNLMEKDSYRRFLKSRFYLDLVNPSSCGAEKQKGAKSSADCASLVPQCA
Turning to B6, the “co-IP with FBXO44” value in the assay on FBXO44 [4] is “does not coimmunoprecipitate with FBXO44”.
